This passage reports screen value results from paper PMC12102759 (2025).

The labels stand for the following.
B1: PIP5K1C peptide 642-657 (Phosphatidylinositol 4-phosphate 5-kinase type-1 gamma), 16-mer library wild type / TLN1 PTB (TLN1 Phosphotyrosine-binding (PTB) domain, residues 309-401) (parent complex)
chain 1: TDERSWVYSPLHYSAQ
chain 2: GVSFFLVKEKMKGKNKLVPRLLGITKECVMRVDEKTKEVIQEWNLTNIKRWAASPKSFTLDFGDYQDGYYSVQTTEGEQIAQLIAGYIDIILK

In the assay the parent is B1. The experiment in a line: proteomic peptide phage display deep mutational scan (ProP-PD DMS): M13 P8 16-mer library selected against immobilised GST-tagged bait for four days (rounds), NGS of the eluted pools per day and pseudo-replica; bait immobilised on MaxiSorp plates (10 µg), library pre-cleared on GST, 2 h binding at 4 °C, five washes; one round per day, days 1-4; value from days 2 and 3.
On to chain 1 L11H, for which the screen value is 0.000309 average fractional NGS count over selection days 2 and 3 (reads of this peptide / all reads for the bait, averaged over ….
As to chain 1 L11A, the screen value is 0.000511 average fractional NGS count over selection days 2 and 3 (reads of this peptide / all reads for the bait, averaged over ….
Consider chain 1 L11Y, for which the screen value was 0.000186 average fractional NGS count over selection days 2 and 3 (reads of this peptide / all reads for the bait, averaged over ….
Then chain 1 L11F, with 0.000354 average fractional NGS count over selection days 2 and 3 (reads of this peptide / all reads for the bait, averaged over ….
As to chain 1 L11W, the screen value was 0.000722 average fractional NGS count over selection days 2 and 3 (reads of this peptide / all reads for the bait, averaged over ….
For the variant chain 1 L11T, the screen value was 0.00178 average fractional NGS count over selection days 2 and 3 (reads of this peptide / all reads for the bait, averaged over ….
chain 1 L11V: the screen value was 0.00105 average fractional NGS count over selection days 2 and 3 (reads of this peptide / all reads for the bait, averaged over ….
chain 1 L11E: the screen value was 0.000382 average fractional NGS count over selection days 2 and 3 (reads of this peptide / all reads for the bait, averaged over ….
In the case of chain 1 W6P, the screen value was 0.000161 average fractional NGS count over selection days 2 and 3 (reads of this peptide / all reads for the bait, averaged over ….
Turning to chain 1 W6V, the screen value was 0.00015 average fractional NGS count over selection days 2 and 3 (reads of this peptide / all reads for the bait, averaged over ….
As to chain 1 S5I, the screen value is 0.00725 average fractional NGS count over selection days 2 and 3 (reads of this peptide / all reads for the bait, averaged over ….
For chain 1 S5V, the screen value was 0.0006 average fractional NGS count over selection days 2 and 3 (reads of this peptide / all reads for the bait, averaged over ….
Consider chain 1 S5W, for which the screen value was 0.000786 average fractional NGS count over selection days 2 and 3 (reads of this peptide / all reads for the bait, averaged over ….
With chain 1 S5M, the screen value is 0.00508 average fractional NGS count over selection days 2 and 3 (reads of this peptide / all reads for the bait, averaged over ….
chain 1 S5P: the screen value is 0.00403 average fractional NGS count over selection days 2 and 3 (reads of this peptide / all reads for the bait, averaged over ….
The same measure for chain 1 S5N: 0.000275 average fractional NGS count over selection days 2 and 3 (reads of this peptide / all reads for the bait, averaged over ….
Then chain 1 S5E, with 0.00528 average fractional NGS count over selection days 2 and 3 (reads of this peptide / all reads for the bait, averaged over …; and chain 1 S5T, with 0.0143 average fractional NGS count over selection days 2 and 3 (reads of this peptide / all reads for the bait, averaged over ….
For the variant chain 1 S5A, the screen value was 0.0049 average fractional NGS count over selection days 2 and 3 (reads of this peptide / all reads for the bait, averaged over ….
Regarding chain 1 S5F, the screen value is 0.000252 average fractional NGS count over selection days 2 and 3 (reads of this peptide / all reads for the bait, averaged over ….
Take chain 1 S5R: the screen value was 0.00066 average fractional NGS count over selection days 2 and 3 (reads of this peptide / all reads for the bait, averaged over ….
Take chain 1 H12G: the screen value is 0.00249 average fractional NGS count over selection days 2 and 3 (reads of this peptide / all reads for the bait, averaged over ….
Regarding chain 1 H12M, the screen value is 0.0016 average fractional NGS count over selection days 2 and 3 (reads of this peptide / all reads for the bait, averaged over ….
For chain 1 H12P, the screen value was 0.00102 average fractional NGS count over selection days 2 and 3 (reads of this peptide / all reads for the bait, averaged over ….
Turning to chain 1 H12K, the screen value was 0.000275 average fractional NGS count over selection days 2 and 3 (reads of this peptide / all reads for the bait, averaged over ….
For the variant chain 1 H12N, the screen value was 0.00503 average fractional NGS count over selection days 2 and 3 (reads of this peptide / all reads for the bait, averaged over ….
With chain 1 H12Q, the screen value was 0.0044 average fractional NGS count over selection days 2 and 3 (reads of this peptide / all reads for the bait, averaged over ….
As to chain 1 H12F, the screen value is 0.00153 average fractional NGS count over selection days 2 and 3 (reads of this peptide / all reads for the bait, averaged over ….
On to chain 1 H12A, for which the screen value is 0.00137 average fractional NGS count over selection days 2 and 3 (reads of this peptide / all reads for the bait, averaged over ….
Regarding chain 1 H12T, the screen value is 0.00303 average fractional NGS count over selection days 2 and 3 (reads of this peptide / all reads for the bait, averaged over ….
For the variant chain 1 H12D, the screen value was 0.00129 average fractional NGS count over selection days 2 and 3 (reads of this peptide / all reads for the bait, averaged over ….
Turning to chain 1 H12V, the screen value is 0.00311 average fractional NGS count over selection days 2 and 3 (reads of this peptide / all reads for the bait, averaged over ….
Then chain 1 H12W, with 0.000302 average fractional NGS count over selection days 2 and 3 (reads of this peptide / all reads for the bait, averaged over ….
As to chain 1 H12E, the screen value was 0.00161 average fractional NGS count over selection days 2 and 3 (reads of this peptide / all reads for the bait, averaged over ….
For chain 1 V7I, the screen value was 0.000515 average fractional NGS count over selection days 2 and 3 (reads of this peptide / all reads for the bait, averaged over ….
Then chain 1 V7W, with 0.00263 average fractional NGS count over selection days 2 and 3 (reads of this peptide / all reads for the bait, averaged over ….
Regarding chain 1 V7K, the screen value is 0.00287 average fractional NGS count over selection days 2 and 3 (reads of this peptide / all reads for the bait, averaged over ….
For the variant chain 1 V7L, the screen value is 0.0042 average fractional NGS count over selection days 2 and 3 (reads of this peptide / all reads for the bait, averaged over ….
The same measure for chain 1 V7D: 0.000439 average fractional NGS count over selection days 2 and 3 (reads of this peptide / all reads for the bait, averaged over ….
For the variant chain 1 V7E, the screen value is 0.00195 average fractional NGS count over selection days 2 and 3 (reads of this peptide / all reads for the bait, averaged over ….
For chain 1 V7G, the screen value is 0.000623 average fractional NGS count over selection days 2 and 3 (reads of this peptide / all reads for the bait, averaged over ….
On to chain 1 V7T, for which the screen value was 0.0104 average fractional NGS count over selection days 2 and 3 (reads of this peptide / all reads for the bait, averaged over ….
For chain 1 V7H, the screen value is 0.000523 average fractional NGS count over selection days 2 and 3 (reads of this peptide / all reads for the bait, averaged over ….
As for chain 1 V7Y, the screen value is 0.00645 average fractional NGS count over selection days 2 and 3 (reads of this peptide / all reads for the bait, averaged over ….
As to chain 1 V7M, the screen value was 0.0016 average fractional NGS count over selection days 2 and 3 (reads of this peptide / all reads for the bait, averaged over ….
Then chain 1 Y13Q, with 0.00224 average fractional NGS count over selection days 2 and 3 (reads of this peptide / all reads for the bait, averaged over ….
Take chain 1 Y13A: the screen value was 0.000758 average fractional NGS count over selection days 2 and 3 (reads of this peptide / all reads for the bait, averaged over ….
With chain 1 Y13L, the screen value is 0.00182 average fractional NGS count over selection days 2 and 3 (reads of this peptide / all reads for the bait, averaged over ….
For the variant chain 1 Y13S, the screen value was 0.00787 average fractional NGS count over selection days 2 and 3 (reads of this peptide / all reads for the bait, averaged over ….
As to chain 1 Y13G, the screen value was 0.000568 average fractional NGS count over selection days 2 and 3 (reads of this peptide / all reads for the bait, averaged over ….
In the case of chain 1 Y13W, the screen value was 0.000603 average fractional NGS count over selection days 2 and 3 (reads of this peptide / all reads for the bait, averaged over ….
On to chain 1 Y13F, for which the screen value is 0.0029 average fractional NGS count over selection days 2 and 3 (reads of this peptide / all reads for the bait, averaged over ….
Regarding chain 1 Y13D, the screen value was 0.0137 average fractional NGS count over selection days 2 and 3 (reads of this peptide / all reads for the bait, averaged over ….
With chain 1 Y13M, the screen value is 0.00125 average fractional NGS count over selection days 2 and 3 (reads of this peptide / all reads for the bait, averaged over ….
chain 1 Y13H: the screen value is 0.000476 average fractional NGS count over selection days 2 and 3 (reads of this peptide / all reads for the bait, averaged over ….
chain 1 Y13R: the screen value was 0.00043 average fractional NGS count over selection days 2 and 3 (reads of this peptide / all reads for the bait, averaged over ….
chain 1 Y13K: the screen value was 0.000613 average fractional NGS count over selection days 2 and 3 (reads of this peptide / all reads for the bait, averaged over ….
Take chain 1 Y13V: the screen value is 0.0012 average fractional NGS count over selection days 2 and 3 (reads of this peptide / all reads for the bait, averaged over ….
For chain 1 Y13N, the screen value is 0.00437 average fractional NGS count over selection days 2 and 3 (reads of this peptide / all reads for the bait, averaged over ….
Consider chain 1 T1K, for which the screen value is 0.001 average fractional NGS count over selection days 2 and 3 (reads of this peptide / all reads for the bait, averaged over ….
As for chain 1 T1H, the screen value is 0.000767 average fractional NGS count over selection days 2 and 3 (reads of this peptide / all reads for the bait, averaged over ….
As to chain 1 T1G, the screen value was 0.00259 average fractional NGS count over selection days 2 and 3 (reads of this peptide / all reads for the bait, averaged over ….
As for chain 1 T1F, the screen value was 0.0018 average fractional NGS count over selection days 2 and 3 (reads of this peptide / all reads for the bait, averaged over ….
On to chain 1 T1N, for which the screen value was 0.00021 average fractional NGS count over selection days 2 and 3 (reads of this peptide / all reads for the bait, averaged over ….
chain 1 T1L: the screen value is 0.000574 average fractional NGS count over selection days 2 and 3 (reads of this peptide / all reads for the bait, averaged over ….
Take chain 1 T1R: the screen value is 0.00306 average fractional NGS count over selection days 2 and 3 (reads of this peptide / all reads for the bait, averaged over ….
For the variant chain 1 T1W, the screen value is 0.00109 average fractional NGS count over selection days 2 and 3 (reads of this peptide / all reads for the bait, averaged over ….
As to chain 1 T1E, the screen value was 0.00477 average fractional NGS count over selection days 2 and 3 (reads of this peptide / all reads for the bait, averaged over ….
The same measure for chain 1 T1Y: 0.000499 average fractional NGS count over selection days 2 and 3 (reads of this peptide / all reads for the bait, averaged over …; for chain 1 T1V: 0.00105 average fractional NGS count over selection days 2 and 3 (reads of this peptide / all reads for the bait, averaged over …; for chain 1 Y8M: 0.00363 average fractional NGS count over selection days 2 and 3 (reads of this peptide / all reads for the bait, averaged over ….
On to chain 1 Y8R, for which the screen value was 0.0156 average fractional NGS count over selection days 2 and 3 (reads of this peptide / all reads for the bait, averaged over ….
As for chain 1 Y8F, the screen value is 0.00543 average fractional NGS count over selection days 2 and 3 (reads of this peptide / all reads for the bait, averaged over ….
As for chain 1 Y8K, the screen value is 0.00106 average fractional NGS count over selection days 2 and 3 (reads of this peptide / all reads for the bait, averaged over ….
As for chain 1 Y8Q, the screen value was 0.00124 average fractional NGS count over selection days 2 and 3 (reads of this peptide / all reads for the bait, averaged over ….
